Source: the supplement of paper PMC11246515
± gives the standard deviation of the averaged measurements.

Experiment: total protein half-life in vivo (active degradation + dilution); higher = more stable protein
[1] = E. coli NCM3722 delta-clpP, growth: N-lim chemostat, doubling time 6 h
[2] = E. coli NCM3722 delta-hslV, growth: N-lim chemostat, doubling time 6 h
[3] = E. coli NCM3722 delta-smpB, growth: N-lim chemostat, doubling time 6 h
[4] = wild type E. coli NCM3722, growth: C-lim chemostat, doubling time 3 h
[5] = wild type E. coli NCM3722, growth: C-lim chemostat, doubling time 6 h
[6] = wild type E. coli NCM3722, growth: C-lim chemostat, doubling time 12 h
[7] = wild type E. coli NCM3722, growth: N-lim chemostat, doubling time 6 h
[8] = wild type E. coli NCM3722, growth: P-lim chemostat, doubling time 12 h
[9] = E. coli NCM3722 delta-clpP delta-lon delta-hslV, growth: N-lim chemostat, doubling time 6 h
[10] = E. coli NCM3722 delta-lon, growth: N-lim chemostat, doubling time 6 h
[11] = wild type E. coli NCM3722, growth: N-lim chemostat, doubling time 12 h
[12] = wild type E. coli NCM3722, growth: P-lim chemostat, doubling time 6 h

Sequence	total protein half-life in vivo [1] [h]	total protein half-life in vivo [2] [h]	total protein half-life in vivo [3] [h]	total protein half-life in vivo [4] [h]	total protein half-life in vivo [5] [h]	total protein half-life in vivo [6] [h]	total protein half-life in vivo [7] [h]	total protein half-life in vivo [8] [h]	total protein half-life in vivo [9] [h]	total protein half-life in vivo [10] [h]	total protein half-life in vivo [11] [h]	total protein half-life in vivo [12] [h]
MTLEWWFAYLLTSIILSLSPGSGAINTMTTSLNHGYRGAVASIAGLQTGLAIHIVLVGVGLGTLFSRSVIAFEVLKWAGAAYLIWLGIQQWRAAGAIDLKSLASTQSRRHLFQRAVFVNLTNPKSIVFLAALFPQFIMPQQPQLMQYIVLGVTTIVVDIIVMIGYATLAQRIALWIKGPKQMKALNKIFGSLFMLVGALLASARHA [P0AG34]	2.02	1.51	1.73 ± 0.21	0.913	1.47	2.28	2.62	3.7				
MTLFTTLLVLIFERLFKLGEHWQLDHRLEAFFRRVKHFSLGRTLGMTIIAMGVTFLLLRALQGVLFNVPTLLVWLLIGLLCIGAGKVRLHYHAYLTAASRNDSHARATMAGELTMIHGVPAGCDEREYLRELQNALLWINFRFYLAPLFWLIVGGTWGPVTLMGYAFLRAWQYWLARYQTPHHRLQSGIDAVLHVLDWVPVRLAGVVYALIGHGEKALPAWFASLGDFHTSQYQVLTRLAQFSLAREPHVDKVETPKAAVSMAKKTSFVVVVVIALLTIYGALV [P0AE14]	6.29		6.02 ± 0.49	3.246 ± 0.031	5.626 ± 0.0074	13.1 ± 3.9	6.63 ± 0.9		6.33 ± 0.16	5.3 ± 0.39	14 ± 2.6	
MTLLALGINHKTAPVSLRERVSFSPDKLDQALDSLLAQPMVQGGVVLSTCNRTELYLSVEEQDNLQEALIRWLCDYHNLNEEDLRKSLYWHQDNDAVSHLMRVASGLDSLVLGEPQILGQVKKAFADSQKGHMKASELERMFQKSFSVAKRVRTETDIGASAVSVAFAACTLARQIFESLSTVTVLLVGAGETIELVARHLREHKVQKMIIANRTRERAQILADEVGAEVIALSDIDERLREADIIISSTASPLPIIGKGMVERALKSRRNQPMLLVDIAVPRDVEPEVGKLANAYLYSVDDLQSIISHNLAQRKAAAVEAETIVAQETSEFMAWLRAQSASETIREYRSQAEQVRDELTAKALAALEQGGDAQAIMQDLAWKLTNRLIHAPTKSLQQAARDGDNERLNILRDSLGLE [P0A6X1]	2.95 ± 0.26	1.55	1.51 ± 0.25	1.03	1.84 ± 0.15	2.76 ± 0.68	1.35 ± 0.31	1.9	4.33 ± 0.069	1.59 ± 0.083	2.08	1.29 ± 0.43
MTLLGTALRPAATRVMLLGSGELGKEVAIECQRLGVEVIAVDRYADAPAMHVAHRSHVINMLDGDALRRVVELEKPHYIVPEIEAIATDMLIQLEEEGLNVVPCARATKLTMNREGIRRLAAEELQLPTSTYRFADSESLFREAVADIGYPCIVKPVMSSSGKGQTFIRSAEQLAQAWKYAQQGGRAGAGRVIVEGVVKFDFEITLLTVSAVDGVHFCAPVGHRQEDGDYRESWQPQQMSPLALERAQEIARKVVLALGGYGLFGVELFVCGDEVIFSEVSPRPHDTGMVTLISQDLSEFALHVRAFLGLPVGGIRQYGPAASAVILPQLTSQNVTFDNVQNAVGADLQIRLFGKPEIDGSRRLGVALATAESVVDAIERAKHAAGQVKVQG	4.76 ± 0.66	4.361 ± 0.017	4.11 ± 0.3	3.033 ± 0.014	5.96 ± 0.31	10.2 ± 0.59	4.28 ± 0.2	10.1 ± 0.19	5.17 ± 0.51	4.5 ± 0.32	6.95 ± 0.21	6.14 ± 0.1
MTLRTENLTVSYGTDKVLNDVSLSLPTGKITALIGPNGCGKSTLLNCFSRLLMPQSGTVFLGDNPINMLSSRQLARRLSLLPQHHLTPEGITVQELVSYGRNPWLSLWGRLSAEDNARVNVAMNQTRINHLAVRRLTELSGGQRQRAFLAMVLAQNTPVVLLDEPTTYLDINHQVDLMRLMGELRTQGKTVVAVLHDLNQASRYCDQLVVMANGHVMAQGTPEEVMTPGLLRTVFSVEAEIHPEPVSGRPMCLMR								3.42	5.53 ± 0.17			
